The source of these data is US20170095417A1, “Percutaneous Implement and Method for Manufacturing” (priority 2015, published 2017).

One data set has as its system rat. Description: Micro payload injected in rat, hypotension and dye distribution (Example 5). The class given is in vivo. To be noted: half-shell Maltose cone mixed 1 mg Alprostadil, indicates vasodilation. How it is done: A sample of micro payload integrated a 1 mm length conic micro-head with drug and 2 mm length micro-stem without drug was injected in rat.
The format of data set [1] is physicochemical. An excerpt: (§1) Quadrangular pyramidal micro-head of 0.7 mm length and 0.1 mm bottom side length was contained anhydrous and amorphous oblate spheroidal Maltose chip of 0.02 mm length and 0.01 mm diameter. The chip was made from mixing material of 50% Maltose and 50% Hyaluronic acid included 30% albumen which was non-heat resistance limited in 70 degree centigrade. Three micro-heads were installed in three lengths of micro implements of 1 mm, 2 mm, and 3 mm.

Data set [2] has as its system skin. To be noted: rat, in vivo.
Source text: as §1

In data set [3] the test system is skin. To be noted: in vivo.

As to `CCCCC[C@H](O)/C=C/[C@H]1[C@H](O)CC(=O)[C@@H]1CCCCCCC(=O)O` [Alprostadil], in the data set with rat, the hypotension is on record as 20 mmHg.
As for albumin, the “heat stability in forming process” value in data set [1] is listed as “resisted temperature of the micro implement forming process”. Moreover, in the data set with skin [2], the “aggregation depths versus implement length” value is listed as “corresponded to the three length respectively” and the deposition in skin result is reported as “albumin aggregation in skin”.
As for Hyaluronic acid, the “transfer of chip into skin” value in the data set with skin [3] is “completely transferred into skin”.
